From doi:10.1101/2025.07.21.666041 (bioRxiv, 2025) come the findings set out here.

The target in series [1] is Measles virus (MeV) nonstructural protein C, full length, C-terminal GFP-Flag (measles virus) (UniProt P35977). The series can be described thus: MST.
For series [2], the target named is T1, Measles virus (MeV) large (L) protein, full length (measles virus, UniProt P35975 1-2183). Put plainly: SEC. On the technique in general: SEC sorts molecules by how far they enter the pores of the column.
T1 sequence (P35975 whole entry): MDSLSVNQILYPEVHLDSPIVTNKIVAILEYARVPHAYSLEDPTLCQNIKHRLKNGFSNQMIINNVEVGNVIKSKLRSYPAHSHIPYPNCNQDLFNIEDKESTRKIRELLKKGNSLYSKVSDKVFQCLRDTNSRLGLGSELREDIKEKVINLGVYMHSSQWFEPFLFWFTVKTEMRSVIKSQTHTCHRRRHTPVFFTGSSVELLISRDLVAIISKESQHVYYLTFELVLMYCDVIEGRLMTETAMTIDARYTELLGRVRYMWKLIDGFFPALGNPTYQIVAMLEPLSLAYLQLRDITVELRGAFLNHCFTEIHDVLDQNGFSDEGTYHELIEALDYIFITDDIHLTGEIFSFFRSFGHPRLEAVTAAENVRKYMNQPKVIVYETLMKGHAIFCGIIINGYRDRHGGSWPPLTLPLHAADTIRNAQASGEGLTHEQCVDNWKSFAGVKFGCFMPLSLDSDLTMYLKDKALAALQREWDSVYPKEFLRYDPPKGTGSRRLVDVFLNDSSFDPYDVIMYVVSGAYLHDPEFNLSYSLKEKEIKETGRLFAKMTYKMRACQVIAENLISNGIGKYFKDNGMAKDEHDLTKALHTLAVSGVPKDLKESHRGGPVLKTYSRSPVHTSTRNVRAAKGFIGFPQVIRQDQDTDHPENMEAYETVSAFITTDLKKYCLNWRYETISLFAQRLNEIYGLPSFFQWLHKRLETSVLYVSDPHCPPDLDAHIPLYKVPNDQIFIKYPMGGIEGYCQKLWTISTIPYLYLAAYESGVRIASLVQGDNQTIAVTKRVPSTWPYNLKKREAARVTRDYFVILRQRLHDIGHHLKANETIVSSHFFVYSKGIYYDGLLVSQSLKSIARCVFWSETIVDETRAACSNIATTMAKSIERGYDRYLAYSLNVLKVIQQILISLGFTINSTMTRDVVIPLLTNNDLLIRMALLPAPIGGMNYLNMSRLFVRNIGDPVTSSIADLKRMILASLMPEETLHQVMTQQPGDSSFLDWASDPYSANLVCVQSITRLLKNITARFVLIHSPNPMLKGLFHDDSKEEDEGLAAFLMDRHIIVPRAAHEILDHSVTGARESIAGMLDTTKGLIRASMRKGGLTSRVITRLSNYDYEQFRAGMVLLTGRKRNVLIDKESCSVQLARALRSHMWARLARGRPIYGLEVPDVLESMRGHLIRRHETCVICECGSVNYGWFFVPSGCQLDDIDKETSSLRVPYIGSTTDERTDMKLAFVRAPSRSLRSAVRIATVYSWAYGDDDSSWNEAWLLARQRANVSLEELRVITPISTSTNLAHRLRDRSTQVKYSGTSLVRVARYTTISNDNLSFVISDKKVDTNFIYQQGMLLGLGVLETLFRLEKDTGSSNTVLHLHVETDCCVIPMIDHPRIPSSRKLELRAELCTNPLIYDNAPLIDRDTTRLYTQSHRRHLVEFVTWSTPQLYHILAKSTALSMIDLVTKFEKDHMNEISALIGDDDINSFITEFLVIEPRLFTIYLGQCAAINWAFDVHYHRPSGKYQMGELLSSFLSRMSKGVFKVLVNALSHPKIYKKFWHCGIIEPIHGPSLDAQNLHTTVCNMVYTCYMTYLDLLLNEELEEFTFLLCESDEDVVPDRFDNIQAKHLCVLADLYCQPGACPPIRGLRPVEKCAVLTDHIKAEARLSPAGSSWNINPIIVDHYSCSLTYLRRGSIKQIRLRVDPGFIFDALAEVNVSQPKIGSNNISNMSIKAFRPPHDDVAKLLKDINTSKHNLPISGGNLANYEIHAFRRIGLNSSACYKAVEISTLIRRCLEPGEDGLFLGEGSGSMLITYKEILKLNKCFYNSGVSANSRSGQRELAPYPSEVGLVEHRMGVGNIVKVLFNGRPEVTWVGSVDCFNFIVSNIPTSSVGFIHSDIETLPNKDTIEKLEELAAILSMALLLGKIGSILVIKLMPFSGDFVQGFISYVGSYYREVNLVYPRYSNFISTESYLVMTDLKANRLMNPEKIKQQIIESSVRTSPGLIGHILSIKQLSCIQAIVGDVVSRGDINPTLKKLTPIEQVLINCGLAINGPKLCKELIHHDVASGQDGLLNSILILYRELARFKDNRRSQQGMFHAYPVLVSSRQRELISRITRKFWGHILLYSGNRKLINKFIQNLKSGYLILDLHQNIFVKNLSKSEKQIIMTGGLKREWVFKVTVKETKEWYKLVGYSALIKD
Series [3] concerns the molecule itself. Put plainly: cryo-EM structure.
Series [4] addresses Measles virus L–P complex (full-length L with truncated P 304–507) (measles virus, UniProt P35975;P35974). The series can be described thus: MST.
Series [5] addresses T1, Measles virus (MeV) large (L) protein, …. The series can be described thus: cryo-EM structure.
Series [6] deals with the molecule itself. Put plainly: cryo-EM structure. This is another data set of the same source.

Values joined by “and” are separate entries in the source; they are usually repeats but may differ in a detail not shown here. Identical values can stand only once. Like-named read-outs stand apart in the source and are kept apart here.

Chain of Measles virus L–P complex (full-length L with truncated P 304–507) (P35975 whole entry, the tested form may be a part, one chain of several): as the sequence (P35975 whole entry) above

In general, Kd refers to a measure of binding affinity in units of concentration. As for “Measles virus nucleoprotein N lacking the N-arm (residues 30–525) (from UniProt P35972 30-525) (domain or fragment)”, in series [1], the Kd is 4.57 µM and 3.92 µM.

B1: Measles virus (MeV) phosphoprotein P, full length (natural protein)
chain: MAEEQARHVKNGLECIRALKAEPIGSLAIEEAMAAWSEISDNPGQERATCREEKAGSSGLSKPCLSAIGSTEGGAPRIRGQGPGESDDDAETLGIPPRNLQASSTGLQCYYVYDHSGEAVKGIQDADSIMVQSGLDGDSTLSGGDNESENSDVDIGEPDTEGYAITDRGSAPISMGFRASDVETAEGGEIHELLRLQSRGNNFPKLGKTLNVPPPPDPGRASTSGTPIKKGTERRLASFGTEIASLLTGGATQCARKSPSEPSGPGAPAGNVPEYVSNAALIQEWTPESGTTISPRSQNNEEGGDYYDDELFSDVQDIKTALAKIHEDNQKIISKLESLLLLKGEVESIKKQINRQNISISTLEGHLSSIMIAIPGLGKDPNDPTADVEINPDLKPIIGRDSGRALAEVLKKPVASRQLQGMTNGRTSSRGQLLKEFQPKPIGKKMSSAVGFVPDTGPASRSVIRSIIKSSRLEEDRKRYLMTLLDDIKGANDLAKFHQMLMKIIMK
Consider B1, for which the binding result in series [2] was “binds”.

B2: Measles virus (MeV) nonstructural protein C, full length, C-terminal GFP-Flag (natural protein)
chain: MSKTDWNASGLSRPSPSAHWPSRKLWQHGQKYQTTQDRSEPPAGKRRQAVRVSANHASQQLDQLKAVHLASAVRDLERAMTTLKLWESPQEISRHQALGYSVIMFMITAVKRLRESKMLTLSWFNQALMVIAPYQEETMNLKTAMWILANLIPRDMLSLTGDLLPSLWGSGLLMLKLQKEGRSTSS
The stoichiometry N is a count of units in the complex or per binding partner. As to B2, the “stoichiometry N” value in series [3] came out at 2. The same molecule had a Kd in series [4] of around 0.32 µM.

B3: Measles virus (MeV) phosphoprotein P, N-terminally truncated (residues 304–507) (domain or fragment)
chain: GDYYDDELFSDVQDIKTALAKIHEDNQKIISKLESLLLLKGEVESIKKQINRQNISISTLEGHLSSIMIAIPGLGKDPNDPTADVEINPDLKPIIGRDSGRALAEVLKKPVASRQLQGMTNGRTSSRGQLLKEFQPKPIGKKMSSAVGFVPDTGPASRSVIRSIIKSSRLEEDRKRYLMTLLDDIKGANDLAKFHQMLMKIIMK
In the case of B3, the binding result in series [5] is reported as “binds”. The “stoichiometry N” value in series [6] worked out at 4.
